In PMC10945505 (2024):

Legend:
Assay in all cases: BLI
FZD7 CRD = FZD7 CRD (Homo sapiens)
Human βKlotho = Human βKlotho (human, UniProt Q86Z14 1-996)
L-αGFP = target: L-αGFP
L-39F7 = target: L-39F7

Row | Binder | Kd (FZD7 CRD) | Kd (Human βKlotho) | Kd (L-αGFP) | Kd (L-39F7)
1 | F-FGF21FL (other) HPIPDSSPLLQFGGQVRQRYLYTDDAQQTEAHLEIREDGTVGGAADQSPESLLQLKALKPGVIQILGVKTSRFLCQRPDGALYGSLHFDPEACSFRERLLEDGYNVYQSEAHGLPLHLPGNKSPHRDPAPRGPARFLPLPGLPPALPEPPGILAPQPPDVGSSDPLSMVGGSQGRSPSYES | 92.3 nM | 10.1 nM |  | 
2 | LRP6E3E4 (protein) EAFLLFSRRADIRRISLETNNNNVAIPLTGVKEASALDFDVTDNRIYWTDISLKTISRAFMNGSALEHVVEFGLDYPEGMAVDWLGKNLYWADTGTNRIEVSKLDGQHRQVLVWKDLDSPRALALDPAEGFMYWTEWGGKPKIDRAAMDGSERTTLVPNVGRANGLTIDYAKRRLYWTDLDTNLIESSNMLGLNREVIADDLPHPFGLTQYQDYIYWTDWSRRSIERANKTSGQNRTIIQGHLDYVMDILVFHSSRQSGWNECASSNGHCSHLCLAVPVGGFVCGCPAHYSLNADNRTCSAPTTFLLFSQKSAINRMVIDEQQSPDIILPIHSLRNVRAIDYDPLDKQLYWIDSRQNMIRKAQEDGSQGFTVVVSSVPSQNLEIQPYDLSIDIYSRYIYWTCEATNVINVTRLDGRSVGVVLKGEQDRPRAVVVNPEKGYMYFTNLQERSPKIERAALDGTEREVLFFSGLSKPIALALDSRLGKLFWADSDLRRIESSDLSGANRIVLEDSNILQPVGLTVFENWLYWIDKQQQMIEKIDMTGREGRTKVQARIAQLSDIHAVKELNLQEYRQHPCAQDNGGCSHICLVKGDGTTRCSCPMHLVLLQDELSCGEP |  |  | 9.7 nM | 6.4 nM
3 | F-FGF21ΔN (other) QRYLYTDDAQQTEAHLEIREDGTVGGAADQSPESLLQLKALKPGVIQILGVKTSRFLCQRPDGALYGSLHFDPEACSFRERLLEDGYNVYQSEAHGLPLHLPGNKSPHRDPAPRGPARFLPLPGLPPALPEPPGILAPQPPDVGSSDPLSMVGGSQGRSPSYES | 82.5 nM | 11.8 nM |  | 
